# Measured values: patent publication US20030130324A1, “METHOD FOR PREVENTING OR CONTROLLING CATARACT” (priority 1993, published 2003)
# B1: α2-macroglobulin (protein, UniProt Q7SIH1 24-1510, looked up)
# Alpha-2-macroglobulin: SVSGKPQYMVLVPSLLHTETPEKGCLLLSHLNETVTVSASLESVRENRSLFTDVVAEKDLFHCVSFTLPRSPTSQEVMFLTIQVKGPTQEFKKRTTVLVKNEESLVFVQTDKPIYKPEQTVKFRIVLLDESFHPLNELVPLVYVEDPKGNRIAQWQNLEVENGLQQLTFPLSSEPFQGSYKVVVQKGSGGTAEHPFTVEEFVLPKFEVQVRMPKIITILEEEVQVSVCGLYTYGKPVPGRVTMNMCRKYRNPSNCYGEESNAVCEKFSGELNNEGCFSQQVNTKIFQLKRQEFEMKIEVEAKIQEEGTEVELTGKGATEITTTITKLSFVTVDSNLRRGIPFTGKVLLVDGKGVPMPNKVIFITANEANHNSNTTTDEHGLAQFSITTTKIKGTSLSIRVKYKDHSPCYGYQWLSEEHQDAYHSANLVFSRSNSFVYLEPLPRELPCGKTQTVQAHYVLKGQVLKDLKELVFYYLIMAKGGIVRSGTHTLPVEQGDMQGHFSMSVPVESDIAPVARLLIYAILPDGEVVGDSARYEIEHCLANKVGLNFSPGQSFPASQAHLRVTASPQSLCALRAVDQSVLLMRPEAELSAATVYNLLPVKDLSSFPSSVNQQEEDNEDCISHDNVYINGIMYFPVSNTNEKDMYSFLQDMGLKAFTNSKIHKPKICPQPEEHRIQHHTLLASPVRAEMGRNRDFVHFDDTSEPPTETVRKYFPETWIWDLVVVSSSGVHEVEVTVPDTITEWKAGALCLSRDTGLGLSPTASLRVFQPFFVELTMPYSVIRGEAFTLKATVLNYLPKCIRVSVQLEASPAFLAVPEKEQETYCICGNGRQTVSWAVTPKSLGNVNFTVSAEAVESQELCGSEVPVVPEHGRKDTIIKPLLVEPEGLEKEVIFNSLLCPSVDFVFLGAEDGGQVLRHFPPAAATDTAADAHDPARPGAKVSESLSLKLPPNVVEESARASFSVLGDILGSAMRNTQNLLQMPYGCGEQNMARFAPNIYVLDYLNETQQLTAELKSKAILYLNTGYQRQLLYKHFDGSYSTFGEHRGNSEGNTWLTAFVLKSFAQARGYIFIDEAHITEALTWLAQKQKSNGCFRSTGTLLNNAIKGGVDDEVTLSAYITIALLEMPLPVTHPVVRNALFCLDSAWKSAKEGSQGSHVYTKALLAYAFALAGNQERRTEVLTSLYEEAVKEDNTIHWTRPQKPRLLTEDIYQPRAPSAEVEMTAYVILAHVTAQPAPNPEDLKRATSIVKWISKQQNCQGGFSSTQDTVVALHALSRYGAATFTSARKAAQVTIQSSGTFSTKFQVENSNRLLLQQVSLPEVPGEYSMSVTGEGCVYLQTSLKYNILPKKDEFPFALEVQTLPQTCDGPKAHTSFQISLSVSYIGSRPASNMAIVDVKMVSGFIPLKPTVKMLERSNVSRTEVSNNHVLIYLDKVTNETLTLTFTVLQDIPVRDLKPAIVKVYDYYETDEFAVAEYSAPCSKDIGNA
# notes: α2-macroglobulin prepared from bovine plasma, Boehringer Mannheim Australia #602 442
# What was measured:
# [1] = test system: lens epithelial explants; assay: Lens epithelial explants cultured on laminin substratum with TGFβ and/or FGF; type: cell-based, rat; details: explants from 21-day-old rats, TGFβ 20 ng/ml, in the presence or absence of FGF 2 ng/ml, 5 day culture
# Procedure: (§1) Each experiment involved culturing explants for up to 5 days without added growth factors (controls), with TGFβ, with a combination of TGFβ and FGF (TGFβ/FGF), or with FGF alone. FGF is another growth factor that influences lens cell behaviour (Chamberlain and McAvoy, 1989; McAvoy et al., 1991). In some experiments, explants were prepared by a standard method used in our laboratory in which the adhering capsule serves as the substratum for the cells. In others, explants were inverted onto a laminin substratum. The latter method allows cell attachment, spreading and migration to be monitored as well as providing good visualisation of individual cells.
# Bovine brain basic FGF was prepared and stored at −20° C. as described by Chamberlain and McAvoy (1989). Ultrapure natural human TGFβ1 was obtained from Genzyme (Cambridge, Mass.) and stored at −80° C. Working stock solutions of TGFβ and FGF were prepared (in culture medium or 1% bovine serum albumin—0.5 M NaCl in phosphate-buffered saline, respectively) and centrifuged at 10,000 g for 10 min at 4° C. just before use.
# This method is as described by Hales et al (1992) Briefly, on the day before the experiment, culture dishes were pre-coated with laminin. […] Responses were monitored daily by phase contrast microscopy.
# [2] = test system: lens epithelial explants; assay: Influence of TGFβ alone and in combination with FGF on lens epithelial explants (standard method); type: cell-based, rat; details: TGFβ 20 ng/ml, up to 5 days culture; summary of Example 1
# Procedure: Lens explants were prepared from both postnatal and adult rats and changes during 5 days culture with growth factor(s) were monitored by light and electron microscopy, immunolocalisation of laminin, heparan sulphate proteoglycan and fibre-specific crystallins, and crystallin ELISAs.
# as §1, with “individual cells. […]” for “individual cells.”
# Explants used for immunofluorescent localisation were collected at the end of the culture period, fixed in Carnoy's fixative for 20 min at room temperature, transferred to 70% ethanol, then covered with a drop of melted 2.5% agar, before dehydrating in ethanol and embedding in paraffin. […] Controls for non-specific fluorescence were included routinely, that is, sections were treated with non-immune rabbit serum instead of specific antibody. […]
# [3] = test system: TGFβ-induced cataract-like changes in rat lens epithelial explants; assay: Explant study using α2-macroglobulin to inhibit TGFβ-induced cataract-like changes; type: cell-based; set-up: key to cataract-like changes: extent of spindle-like elongation: −, negligible change or reverted to predominantly epithelial morphology; +-++++, indicates extent of spindle-like elongation; +-++++, indicates extent of spindle-like elongation; +-++++, indicates extent of spindle-like elongation; +-++++, indicates extent of spindle-like elongation; †-††††, indicates extent of cell loss; †-††††, indicates extent of cell loss; †-††††, indicates extent of cell loss; †-††††, indicates extent of cell loss; o, elongation assessment was invalidated by cell loss
# Procedure: α2-macroglobulin prepared from bovine plasma was obtained from Boehringer Mannheim Australia (Castle Hill, NSW; #602 442). Lens epithelial explants (2 per culture dish) were prepared from 21-day-old rats as described previously (See Example 1, Standard Method). α2-macroglobulin was dissolved in culture medium (defined in Example 1) at a final concentration of 400 μg/ml. The solution was sterilised by passing through a 0.22 μm filter and a portion was diluted with an equal volume of sterile medium. These solutions were equilibrated at 37° C. in 5% CO2/air before use. A stock solution containing 25 pg/10 μl TGFβ2 (Genzyme, Cambridge, Mass.) was prepared in sterile medium. Six treatment groups were then set up by replacing medium in culture dishes containing explants with 1 ml medium or 1 ml medium containing 200 or 400 μg/ml α2-macroglobulin, with or without added TGFβ, as indicated in Table 2. Explants were cultured and monitored for cataract-like changes by phase contrast microscopy. In particular, each explant was graded according to the extent of spindle-like elongation and cell death, which are characteristically observed in explants cultured with TGFβ (See Examples 1 and 2). Explants were photographed on days 3-5.
# [4] = Day 4, TGFβ2 25 pg/ml, α2-MG 200 μg/ml
# [5] = Day 4, TGFβ2 25 pg/ml, α2-MG 400 μg/ml
# [6] = Day 5, TGFβ2 25 pg/ml, α2-MG 200 μg/ml
# [7] = Day 5, TGFβ2 25 pg/ml, α2-MG 400 μg/ml
molecule,measurement,setting,value
TGFβ: Ultrapure natural human TGFβ1 obtained from Genzyme (Example 1),cell spreading and migration onto laminin substratum,[1],inhibited spreading and migration
same,cell elongation in explants,[2],extensive and rapid elongation
same,other TGFβ-induced cataract-like responses in explants,[2],"induced accumulation of extracellular matrix, capsule wrinkling, cell death by apoptosis and distinctive arrangements of cells"
B1,cataract-like changes: extent of spindle-like elongation,"[3]; Day 2, TGFβ2 0 pg/ml, α2-MG 200 μg/ml",−
same,cataract-like changes: extent of spindle-like elongation,"[3]; Day 2, TGFβ2 0 pg/ml, α2-MG 400 μg/ml",−
same,cataract-like changes: extent of spindle-like elongation,"[3]; Day 2, TGFβ2 25 pg/ml, α2-MG 200 μg/ml",−
same,cataract-like changes: extent of spindle-like elongation,"[3]; Day 2, TGFβ2 25 pg/ml, α2-MG 400 μg/ml",−
same,cataract-like changes: extent of spindle-like elongation,"[3]; Day 3, TGFβ2 0 pg/ml, α2-MG 200 μg/ml",−
same,cataract-like changes: extent of spindle-like elongation,"[3]; Day 3, TGFβ2 0 pg/ml, α2-MG 400 μg/ml",−
same,cataract-like changes: extent of spindle-like elongation,"[3]; Day 3, TGFβ2 25 pg/ml, α2-MG 200 μg/ml","+ (+-++++, indicates extent of spindle-like elongation)"
same,cataract-like changes: extent of spindle-like elongation,"[3]; Day 3, TGFβ2 25 pg/ml, α2-MG 400 μg/ml","+ (+-++++, indicates extent of spindle-like elongation)"
same,cataract-like changes: extent of spindle-like elongation,"[3]; Day 4, TGFβ2 0 pg/ml, α2-MG 200 μg/ml",−
same,cataract-like changes: extent of spindle-like elongation,"[3]; Day 4, TGFβ2 0 pg/ml, α2-MG 400 μg/ml",−
same,cataract-like changes: extent of cell loss,[3]; [4],"† (†-††††, indicates extent of cell loss)"
same,cataract-like changes: extent of spindle-like elongation,[3]; [4],"+ (+-++++, indicates extent of spindle-like elongation)"
same,cataract-like changes: extent of cell loss,[3]; [5],"† (†-††††, indicates extent of cell loss)"
same,cataract-like changes: extent of spindle-like elongation,[3]; [5],"+ (+-++++, indicates extent of spindle-like elongation)"
same,cataract-like changes: extent of spindle-like elongation,"[3]; Day 5, TGFβ2 0 pg/ml, α2-MG 200 μg/ml",−
same,cataract-like changes: extent of spindle-like elongation,"[3]; Day 5, TGFβ2 0 pg/ml, α2-MG 400 μg/ml",−
same,cataract-like changes: extent of cell loss,[3]; [6],"† (†-††††, indicates extent of cell loss)"
same,cataract-like changes: extent of spindle-like elongation,[3]; [6],−
same,cataract-like changes: extent of cell loss,[3]; [7],"† (†-††††, indicates extent of cell loss)"
same,cataract-like changes: extent of spindle-like elongation,[3]; [7],−
same,inhibition of TGFβ-induced changes,"[3]; TGFβ2 25 pg/ml, α2-macroglobulin 200 or 400 μg/ml, days 2-5",substantially inhibited
same,changes in explants cultured without TGFβ,"[3]; medium containing α2-macroglobulin 200 or 400 μg/ml, no TGFβ, throughout the culture period",No significant changes
